According to publication PMC8172134:

Target: WIV16 RBD ([change] domain) (bat SARS-like coronavirus WIV16)

human monoclonal antibody 47D11
IC50 of neutralization of WIV16-S pseudotyped VSV (luciferase) on VeroE6 cells: 0.165 µg/mL
